Like-named read-outs stand apart in the source and are kept apart here.
What was measured:
Assay in all cases: SPR (Biacore), antibody captured on chip, FcgR extracellular domain as analyte
FcgRIa [1] = target: T1, FcgRIa (human, UniProt P12314 16-292)
T1 construct: extracellular domain; Expressed in FreeStyle293 cells and purified; used as analyte in Biacore; also called FcγRIa; FcγRI; not shown: His tag attached to the C terminus

FcgRIIIa F [2] = target: T2, FcgRIIIa F (human, UniProt P08637 17-208)
T2 construct: extracellular domain; also called FcγRIIIa F; not shown: His tag attached to the C terminus

FcgRIIb [3] = target: T3, FcgRIIb (human, UniProt P31994 43-217)
T3 construct: extracellular domain; Expressed in FreeStyle293 cells and purified; used as analyte in Biacore; also called FcγRIIb; CD32B; not shown: His tag attached to the C terminus
T3 sequence (looked up): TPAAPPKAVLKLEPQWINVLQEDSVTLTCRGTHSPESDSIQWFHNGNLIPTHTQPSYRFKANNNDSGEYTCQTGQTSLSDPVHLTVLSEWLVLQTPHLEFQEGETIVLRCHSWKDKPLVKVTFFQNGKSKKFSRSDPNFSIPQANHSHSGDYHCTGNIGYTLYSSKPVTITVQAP

FcgRIIa H = target: T4, FcgRIIa H (human, UniProt P12318 34-217)
T4 construct: extracellular domain; also called FcγRIIa H; FcγRIIa type H; not shown: His tag attached to the C terminus
T4 sequence (looked up): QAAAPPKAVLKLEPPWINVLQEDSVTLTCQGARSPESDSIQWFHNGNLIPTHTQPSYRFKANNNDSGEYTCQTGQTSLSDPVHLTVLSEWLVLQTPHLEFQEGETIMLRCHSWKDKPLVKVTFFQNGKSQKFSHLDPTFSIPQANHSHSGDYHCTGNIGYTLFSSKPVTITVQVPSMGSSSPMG
Method: (§1) Analysis of interaction between obj ective antibody and the FcγR was carried out using Biacore T100 (GE Healthcare), Biacore T200, Biacore A100, and Biacore 4000. HBS-EP+ (GE Healthcare) was used as the running buffer, and the measurement temperature was set to 25° C. Chips produced by immobilizing the antigen peptide by the amine coupling method to a Series S sensor Chip CM5 (GE Healthcare), chips produced by allowing preliminarily biotinylated antigen peptides to interact with and immobilize onto a Series S Sensor Chip SA (certified) (GE Healthcare), chips produced by immobilizing Protein L (ACTIGEN, BioVision) to Series S Sencor Chip CM5 (GE Healthcare), or chips produced by immobilizing Protein A/G (Thermo Scientific) to Series S Sencor Chip CM5 (GE Healthcare) were used. Antibodies of interest were captured onto these chips, and allowed to interact to each FcγR diluted with running buffer. To regenerate and repeatedly use the chip, the antibodies captured onto the chip were washed off by reacting 10 mM glycine-HCl, pH 1.5.

FcgRIa [4] = target: T1, FcgRIa; remark: listed apart in the source
Method: as §1

FcgRIIIa V = target: T5, FcgRIIIa V (human, UniProt P08637 17-208)
T5 construct: extracellular domain; also called FcγRIIIa V; not shown: His tag attached to the C terminus
Method: as §1

FcgRIIa R = target: T6, FcgRIIa R (human, UniProt P12318 34-217)
T6 construct: extracellular domain; also called FcγRIIa R; FcγRIIa type R; not shown: His tag attached to the C terminus
T6 sequence (looked up): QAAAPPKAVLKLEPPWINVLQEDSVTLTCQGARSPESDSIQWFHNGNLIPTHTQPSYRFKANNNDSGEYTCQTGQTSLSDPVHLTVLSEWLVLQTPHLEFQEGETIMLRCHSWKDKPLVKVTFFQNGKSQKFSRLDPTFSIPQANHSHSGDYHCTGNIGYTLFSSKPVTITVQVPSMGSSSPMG
Method: as §1

FcgRIIIa F [5] = target: T2, FcgRIIIa F; remark: listed apart in the source
Method: as §1

FcgRIIb [6] = target: T3, FcgRIIb; remark: listed apart in the source
Method: as §1

T1 sequence (P12314 16-292): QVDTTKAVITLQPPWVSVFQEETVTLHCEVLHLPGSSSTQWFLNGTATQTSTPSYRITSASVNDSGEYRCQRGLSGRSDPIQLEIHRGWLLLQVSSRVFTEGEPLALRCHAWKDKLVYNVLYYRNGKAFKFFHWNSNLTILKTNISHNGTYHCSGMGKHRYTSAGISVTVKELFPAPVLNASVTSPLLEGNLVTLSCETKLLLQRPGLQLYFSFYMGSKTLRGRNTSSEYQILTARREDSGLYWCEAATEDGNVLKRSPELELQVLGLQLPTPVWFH
T2 sequence (P08637 17-208): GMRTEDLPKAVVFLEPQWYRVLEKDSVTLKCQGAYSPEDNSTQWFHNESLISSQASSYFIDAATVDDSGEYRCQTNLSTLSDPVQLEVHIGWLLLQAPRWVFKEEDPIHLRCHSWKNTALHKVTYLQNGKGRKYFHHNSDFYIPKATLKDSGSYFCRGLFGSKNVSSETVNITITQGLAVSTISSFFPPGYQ
T5 sequence (P08637 17-208 F176V limits assumed): as the sequence (P08637 17-208) above, with F160V counted along it

B1: H240-afucosyl_G1d/L73-k0 (antibody, human IgG1, kappa)
heavy: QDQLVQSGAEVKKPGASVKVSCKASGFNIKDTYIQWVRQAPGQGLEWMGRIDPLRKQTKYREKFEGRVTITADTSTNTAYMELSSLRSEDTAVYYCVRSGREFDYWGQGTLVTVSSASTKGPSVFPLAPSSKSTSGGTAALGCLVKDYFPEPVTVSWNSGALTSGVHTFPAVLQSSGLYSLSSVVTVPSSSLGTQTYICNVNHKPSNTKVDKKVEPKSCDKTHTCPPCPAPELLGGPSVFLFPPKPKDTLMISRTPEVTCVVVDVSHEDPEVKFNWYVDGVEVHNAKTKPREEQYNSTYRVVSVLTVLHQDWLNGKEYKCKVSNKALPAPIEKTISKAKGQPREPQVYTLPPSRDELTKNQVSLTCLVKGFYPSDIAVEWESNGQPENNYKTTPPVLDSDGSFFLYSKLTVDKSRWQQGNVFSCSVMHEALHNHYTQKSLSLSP
light: DIQMTQSPSSLSASVGDRVTITCRASQDIHKYIAWYQQKPGQAPRLLIQYTSTLQPGVPSRFSGSGSGTDYTFTISSLQPEDIATYYCLQYEQLRTFGGGTKVEIKRTVAAPSVFIFPPSDEQLKSGTASVVCLLNNFYPREAKVQWKVDNALQSGNSQESVTEQDSKDSTYSLSSTLTLSKADYEKHKVYACEVTHQGLSSPVTKSFNRGEC
modifications: fucose removed from the sugar chain (afucosylated); amino acid sequence same as H240-G1d
notes: Anti-EREG IgG1 obtained by afucosylating H240-G1d/L73-k0; also called afucosylated antibody
For B1, the Kd (FcgRIa [1]) was 0.43 nM, the Kd (FcgRIIIa F [2]) was 79 nM and the Kd (FcgRIIb [3]) was 2600 nM. For the same binder, the Kd (FcgRIIa H) was 780 nM, the Kd (FcgRIa [4]) was 0.43 nM and the Kd (FcgRIIIa V) was 6.9 nM. The Kd (FcgRIIa R) was 490 nM, the Kd (FcgRIIIa F [5]) was 79 nM and the Kd (FcgRIIb [6]) was 2600 nM.

— US20180155451A1 (published 2018)
